# Experimental data reported in CN111138529A (INST MILITARY MEDICINE ACADEMY MILITARY SCIENCES PLA, dated 2020).
# B1: 单克隆抗体5E1 (antibody, V domains shown)
# VH: EVQLVESGGGVVQSGRSLRLSCAASGFTFSNYGMHWVRRAPGKGLEWVAVISYDGSIKYYADAVQGRFTISRDNSKNTLYLQMNSVRAEDRAVYYCAKGSRVVATLNFFDLWGRGTLVTVSS
# VL: AIRMTQSPSSLSASVGDRVTITCRASQDIRNFLAWYQQKPEKAPKLLVYTASRRESGVPPRLSGSGSGTEYTLTISSLQPEDFATYYCQQYYSTPPTFGQGTKVDIKT
# Biological target: T1, RESTV GP (RESTV, UniProt Q66799 34-651)
# T1 sequence: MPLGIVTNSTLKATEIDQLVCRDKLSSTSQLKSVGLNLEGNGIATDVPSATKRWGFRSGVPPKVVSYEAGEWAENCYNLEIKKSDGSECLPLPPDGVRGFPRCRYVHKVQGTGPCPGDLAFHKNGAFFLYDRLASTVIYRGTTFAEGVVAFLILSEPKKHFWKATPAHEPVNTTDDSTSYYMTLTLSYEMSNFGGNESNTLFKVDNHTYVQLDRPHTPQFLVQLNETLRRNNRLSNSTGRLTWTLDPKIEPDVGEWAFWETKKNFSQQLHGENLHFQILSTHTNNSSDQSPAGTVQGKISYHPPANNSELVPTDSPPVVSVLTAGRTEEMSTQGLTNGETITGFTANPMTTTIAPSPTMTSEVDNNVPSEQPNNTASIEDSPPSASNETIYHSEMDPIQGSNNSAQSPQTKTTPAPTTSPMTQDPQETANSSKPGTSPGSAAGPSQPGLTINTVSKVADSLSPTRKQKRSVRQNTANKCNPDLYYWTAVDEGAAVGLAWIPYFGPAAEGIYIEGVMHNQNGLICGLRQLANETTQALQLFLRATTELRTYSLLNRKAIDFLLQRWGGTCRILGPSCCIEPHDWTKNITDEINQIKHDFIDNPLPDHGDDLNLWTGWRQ
# Assay: ELISA, coated GP 1μg/mL
binder,measurement,value
B1,binding result,no binding
